Source: patent US20100222258A1 (KABUSHIKI KAISHA HAYASHIBARA SEIBUTSU KAGAKU KENKYUJO, published 2010)
Positions count from the first letter of the chain named.

T1: TNF-R1 on HEp-2 cells (human, UniProt P19438 30-455)
T1 sequence (looked up): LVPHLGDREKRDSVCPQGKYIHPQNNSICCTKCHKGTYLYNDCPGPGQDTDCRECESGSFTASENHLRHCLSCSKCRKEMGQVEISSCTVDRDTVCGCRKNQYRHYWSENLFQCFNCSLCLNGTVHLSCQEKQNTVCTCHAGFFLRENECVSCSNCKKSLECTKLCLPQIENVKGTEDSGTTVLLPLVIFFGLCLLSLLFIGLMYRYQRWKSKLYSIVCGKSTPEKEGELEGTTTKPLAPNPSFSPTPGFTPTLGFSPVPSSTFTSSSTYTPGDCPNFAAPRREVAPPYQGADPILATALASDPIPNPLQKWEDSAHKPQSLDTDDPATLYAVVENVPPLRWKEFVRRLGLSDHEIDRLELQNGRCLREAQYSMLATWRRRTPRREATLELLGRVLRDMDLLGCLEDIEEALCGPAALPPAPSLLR

T2: TNF-R1 on L-M cells (mouse, UniProt P25118 30-454)
T2 sequence (looked up): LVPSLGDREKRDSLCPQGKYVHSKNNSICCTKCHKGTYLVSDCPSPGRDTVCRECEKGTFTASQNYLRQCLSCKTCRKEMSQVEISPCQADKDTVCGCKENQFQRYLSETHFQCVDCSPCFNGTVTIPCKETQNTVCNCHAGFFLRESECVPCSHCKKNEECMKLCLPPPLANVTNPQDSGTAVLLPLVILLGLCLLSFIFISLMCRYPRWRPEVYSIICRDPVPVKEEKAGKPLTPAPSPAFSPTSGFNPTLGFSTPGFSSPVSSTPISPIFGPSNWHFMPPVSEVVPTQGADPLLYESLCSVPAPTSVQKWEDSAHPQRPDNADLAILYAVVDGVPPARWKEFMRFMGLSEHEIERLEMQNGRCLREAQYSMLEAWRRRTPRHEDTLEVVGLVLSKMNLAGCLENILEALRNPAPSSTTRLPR

T3: TNF-R1 (a protein having the amino acid sequence, Accession No. M58286 registered at GENBANK) (UniProt P19438 30-211, limits assumed)
T3 construct: also called TNF receptor having a molecular weight of 55 kilo daltons
T3 sequence (looked up): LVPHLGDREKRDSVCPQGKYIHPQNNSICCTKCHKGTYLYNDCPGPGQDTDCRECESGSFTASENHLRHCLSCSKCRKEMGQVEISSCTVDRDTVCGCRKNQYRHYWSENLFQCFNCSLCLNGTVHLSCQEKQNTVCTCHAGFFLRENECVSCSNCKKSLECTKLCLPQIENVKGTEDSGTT

T4: TNF-R2 (a protein having the amino acid sequence, Accession No. M55994 registered at GENBANK) (UniProt P20333 23-257, limits assumed)
T4 construct: also called TNF receptor with 75 kilo daltons
T4 sequence (looked up): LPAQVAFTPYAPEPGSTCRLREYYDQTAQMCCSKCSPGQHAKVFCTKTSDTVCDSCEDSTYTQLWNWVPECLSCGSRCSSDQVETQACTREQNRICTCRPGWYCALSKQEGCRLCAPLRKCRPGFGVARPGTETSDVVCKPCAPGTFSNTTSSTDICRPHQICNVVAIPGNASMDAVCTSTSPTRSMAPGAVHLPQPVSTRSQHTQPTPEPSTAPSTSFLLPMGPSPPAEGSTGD

B1: TNF mutant protein of clone No. 36 (ligand)
chain: VRSSSRTPSDMPVAHVVANPQAEGQLQWLNRRANALLANGVELRDNQLVVPSEGLYLIYSQVLFSGQGCPSTHVLLTHTISRIAPGYSHPVNLLSAIRSPCQRETPEGAEANPWYEPIYLGGVFQLEPGDRLSAEINRPDYLDFAESGQVYFGIIAL
notes: Mutant of lysine-replaced TNF, made in E. coli; also called TNF antagonist of clone No. 36
B2: TNF mutant protein of clone No. 38 (ligand)
chain: B1 chain with A84G, P85G, G86P, S88Q, H89R
notes: Mutant of lysine-replaced TNF, made in E. coli; also called TNF antagonist of clone No. 38
B3: TNF mutant protein of clone No. 37 (ligand)
chain: B1 chain with A84S, P85T, G86T, Y87H, S88N, H89Q
notes: Mutant of lysine-replaced TNF, made in E. coli; also called TNF antagonist of clone No. 37
B4: TNF mutant protein of clone No. 6 (ligand)
chain: VRSSSRTPSDMPVAHVVANPQAEGQLQWSNRYANALLANGVELRDNQLVVPSEGLYLIYSQVLFSGQGCPSTHVLLTHTISRIAVSYQTPVNLLSAIRSPCQRETPEGAEANPWYEPIYLGGVFQLEPGDRLSAEINRPDYLDFSM
notes: Mutant of lysine-replaced TNF, made in E. coli; stop codon at position 147
B5: TNF mutant protein of clone No. 1 (ligand)
chain: B1 chain with L29Q, R32W, P85V, G86S, S88Q, H89T
notes: Mutant of lysine-replaced TNF, made in E. coli
B6: TNF mutant protein of clone No. 29 (ligand)
chain: B1 chain with A84T, P85E, G86Q
notes: as for B5
B7: TNF mutant protein of clone No. 17 (ligand)
chain: B1 chain with A84S, P85K, G86T, S88T
notes: as for B5
B8: TNF mutant protein of clone No. 28 (ligand)
chain: B1 chain with A84T, P85K, G86S, H89K
notes: as for B5
B9: TNF mutant protein of clone No. 22 (ligand)
chain: B1 chain with A84S, P85R, G86V, S88T, H89A
notes: as for B5
B10: TNF mutant protein of clone No. 3 (ligand)
chain: B1 chain with R31S, R32D, P85V, G86S, S88Q, H89T, E146A, S147R
notes: as for B5
B11: TNF mutant protein of clone No. 23 (ligand)
chain: B1 chain with A84T, P85T, G86A, H89G
notes: as for B5
B12: TNF mutant protein of clone No. 24 (ligand)
chain: B1 chain with A84T, P85H, G86K, S88P, H89Q
notes: as for B5
B13: TNF mutant protein of clone No. 21 (ligand)
chain: B1 chain with A84T, P85S, G86A, S88G, H89P
notes: as for B5
B14: TNF mutant protein of clone No. 19 (ligand)
chain: B1 chain with A84S, P85Y, G86N, S88N, H89G
notes: as for B5
B15: TNF mutant protein of clone No. 18 (ligand)
chain: B1 chain with A84S, G86L, S88P, H89K
notes: as for B5

The binders below were run against T1, TNF-R1 on HEp-2 cells (assay: cell-based or functional assay).

Row | Binder | Viability (%) of HEp-2 cells, 10 ng/ml TNF-α + 1,000 ng/ml TNF antagonist (9 without antagonist) [%] | Viability (%) of HEp-2 cells, 10 ng/ml TNF-α + 10,000 ng/ml TNF antagonist (9 without antagonist) [%] | Viability (%) of HEp-2 cells, 10 ng/ml TNF-α + 100,000 ng/ml TNF antagonist (9 without antagonist) [%] | Viability (%) of HEp-2 cells, 10 ng/ml TNF-α + 500,000 ng/ml TNF antagonist (9 without antagonist) [%]
1 | B1 | 12 | 13 | 38 | 74
2 | B2 | 11 | 22 | 72 | 95
3 | B3 | 11 | 18 | 43 | 75

The binders below were run against T2, TNF-R1 on L-M cells (assay: cell-based or functional assay).

Row | Binder | Viability (%) of L-M cells, 10 ng/ml TNF-α + 1,000 ng/ml TNF antagonist (17 without antagonist) [%] | Viability (%) of L-M cells, 10 ng/ml TNF-α + 10,000 ng/ml TNF antagonist (17 without antagonist) [%] | Viability (%) of L-M cells, 10 ng/ml TNF-α + 100,000 ng/ml TNF antagonist (17 without antagonist) [%] | Viability (%) of L-M cells, 10 ng/ml TNF-α + 500,000 ng/ml TNF antagonist (17 without antagonist) [%]
4 | B1 | 43 | 54 | 63 | 59
5 | B2 | 42 | 47 | 58 | 70
6 | B3 | 42 | 51 | 59 | 72

Each binder was assayed against T3, TNF-R1 (a protein having the amino acid …) (assay: SPR (BIACORE 2000), receptor on sensor tip; grade 3 = 0.5 to 2 times that of recombinant TNF-α).
From the text: (§1) Using the above detector based on surface plasmon resonance effect again, the resulting clones binding to TNF-R1 (or TNF-R2) were subjected to the remaining sensor tip conjugated with TNF-R2 (or TNF-R1) to measure receptor binding affinity and select clones having a variation of receptor binding affinity. […] The resulting DNAs were digested with restrict enzymes NdeI and BamHI to obtain DNA fragments. The resulting DNA fragments were introduced into a plasmid vector containing T7 promoter region, T7 terminator region, ampicillin resistant gene region and ColE1/Ori region (product name “pET-3a”, manufactured by “Novagen®” (EMD Biosciences, Inc.)) at the position of the above restriction sites. The resulting plasmid was introduced into E. coli BL21DE3 strain to obtain a transformed E. coli for producing the TNF mutant proteins. The obtained transformed E. coli was cultured according to usual method and centrifuged to collect E. coli pellet. The resulting pellet was washed twice with TES buffer (pH 8.0) (20 mM Tris-HCl, 10 mM ethylene diamine tetraacetic acid and 0.5 M sodium chloride) and admixed with TES buffer (pH 8.0) containing 0.2 mg/ml lysozyme. The resulting suspension was sonicated according to usual manner, and centrifuged to collect a precipitate containing the produced TNF mutant protein. The resulting precipitate was treated three times in a manner of admixing with TES buffer containing 1 (w/w) % Triton X-100, removed from supernatant by centrifuging, admixed with 50 mM Tris-HCl (pH 7.0) containing 8 M guanidine hydrochloride and 50 mM dithiothreitol, with stirring for 16 hours at ambient temperature under shielded condition, and centrifuged to collect a supernatant. The resulting supernatant was gently admixed with 100 time volumes of a aqueous solution containing 1 M Tris, 0.9 (w/v) % sodium chloride, 0.4 M L-arginine chloride, 2.5 mM reduced glutathione, 0.5 mM oxidized glutathione and 0.05 (w/v) % Tween 20, and kept at 4° C. for 16 hours.

Row | Binder | binding affinity relative to recombinant TNF-α [fold]
7 | B4 | 0.5 to 2
8 | B5 | 0.5 to 2
9 | B6 | 0.5 to 2
10 | B1 | 0.5 to 2
11 | B7 | 0.5 to 2
12 | B8 | 0.5 to 2
13 | B2 | 0.5 to 2
14 | B3 | 0.5 to 2
15 | B9 | 0.5 to 2
16 | B10 | 0.5 to 2

Each binder was assayed against T4, TNF-R2 (a protein having the amino acid …) (assay: SPR (BIACORE 2000), receptor on sensor tip; grade 1 = 0.001 to 0.1 time that of recombinant TNF-α).
From the text: as §1

Row | Binder | binding affinity relative to recombinant TNF-α [fold]
17 | B4 | 0.001 to 0.1
18 | B5 | 0.001 to 0.1
19 | B11 | 0.001 to 0.1
20 | B6 | 0.001 to 0.1
21 | B12 | 0.001 to 0.1
22 | B1 | 0.001 to 0.1
23 | B7 | 0.001 to 0.1
24 | B13 | 0.001 to 0.1
25 | B8 | 0.001 to 0.1
26 | B2 | 0.001 to 0.1
27 | B14 | 0.001 to 0.1
28 | B3 | 0.001 to 0.1
29 | B9 | 0.001 to 0.1
30 | B10 | 0.001 to 0.1
31 | B15 | 0.001 to 0.1

What follows are binders tested against T3, TNF-R1 (a protein having the amino acid …) (assay: SPR (BIACORE 2000), receptor on sensor tip; grade 4 = two times or more that of recombinant TNF-α).
From the text: as §1

Row | Binder | binding affinity relative to recombinant TNF-α [fold]
32 | B11 | ≥ 2
33 | B12 | ≥ 2
34 | B13 | ≥ 2
35 | B14 | ≥ 2
36 | B15 | ≥ 2
